This assay concerns the target CanA from Pyrodictium abyssi (recombinant full-length CanA) (Pyrodictium abyssi). In words: 1H NMR signal decay during polymerization; 0.97 mM CanA in 50 mM Tris-HCl, 50 mM NaCl, pH 7.5, 10% D2O, 0.4 mM DSS; polymerization started by MgCl2 and CaCl2 to 20 mM each; 298 K; about 42 h; intensity of -0.6 to 0.1 ppm fitted by single or double exponential.

For “CanA from Pyrodictium abyssi (recombinant full-length CanA) (natural protein)”, the critical CanA concentration for polymerization stood at 2.48 µM.

For the origin of these results see PMC12326000.
